Target: Dnmt3a-CD wt;Dnmt3L (Mus musculus;) (UniProt O88508+Q9CWR8)
Assay: 2-aminopurine fluorescence (base flipping)
Details: 0.1 mM AdoMet; N15 of strand 1 = 2-aminopurine (replaces target C); C15 of strand 2 = 5-methylcytosine; Fluorescence polarization: 10 nM duplex, 0.1 mM AdoHcy, Dnmt3a reaction buffer (composition not given), 25 °C; enzyme up to 600-800 nM

Dnmt3a-CD wt;Dnmt3L (Mus musculus;), sequence (O88508 608-908, chain 1 of 2): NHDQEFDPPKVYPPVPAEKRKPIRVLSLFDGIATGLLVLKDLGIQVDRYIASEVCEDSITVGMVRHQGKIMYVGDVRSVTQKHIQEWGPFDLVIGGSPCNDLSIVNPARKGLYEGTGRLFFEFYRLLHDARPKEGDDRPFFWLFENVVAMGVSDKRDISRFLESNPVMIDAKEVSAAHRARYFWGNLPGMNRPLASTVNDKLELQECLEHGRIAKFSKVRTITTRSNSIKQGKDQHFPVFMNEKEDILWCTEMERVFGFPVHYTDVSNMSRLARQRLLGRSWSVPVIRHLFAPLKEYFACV
Dnmt3a-CD wt;Dnmt3L (Mus musculus;), sequence (Q9CWR8 whole entry, chain 2 of 2): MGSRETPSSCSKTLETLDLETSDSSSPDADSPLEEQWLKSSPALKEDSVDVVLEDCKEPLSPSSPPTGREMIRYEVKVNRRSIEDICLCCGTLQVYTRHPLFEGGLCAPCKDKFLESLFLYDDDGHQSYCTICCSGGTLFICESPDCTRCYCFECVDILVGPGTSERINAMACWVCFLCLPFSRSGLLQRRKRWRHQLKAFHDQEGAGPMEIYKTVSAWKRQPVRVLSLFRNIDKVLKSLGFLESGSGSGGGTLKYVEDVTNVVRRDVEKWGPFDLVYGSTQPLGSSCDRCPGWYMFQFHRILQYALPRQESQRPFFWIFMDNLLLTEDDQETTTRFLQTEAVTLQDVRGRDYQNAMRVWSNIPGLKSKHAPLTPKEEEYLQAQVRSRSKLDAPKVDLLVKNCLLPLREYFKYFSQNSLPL

CTGAATACTACTTGNGCTCTCTAACCTGAT / ATCAGGTTAGAGAGCGCAAGTAGTATTCAG [GBGC/CGMG]
binding signal: 100%

From paper PMC4802922
